T1: human P-selectin glycoprotein ligand-1 (PSGL-1), expressed on Sp2/0-hPSGL-1 cells (human, UniProt Q14242 42-412)
T1 construct: Sp2/0 cells transfected with human PSGL-1; also called human PSGL-1; SELPLG
T1 sequence: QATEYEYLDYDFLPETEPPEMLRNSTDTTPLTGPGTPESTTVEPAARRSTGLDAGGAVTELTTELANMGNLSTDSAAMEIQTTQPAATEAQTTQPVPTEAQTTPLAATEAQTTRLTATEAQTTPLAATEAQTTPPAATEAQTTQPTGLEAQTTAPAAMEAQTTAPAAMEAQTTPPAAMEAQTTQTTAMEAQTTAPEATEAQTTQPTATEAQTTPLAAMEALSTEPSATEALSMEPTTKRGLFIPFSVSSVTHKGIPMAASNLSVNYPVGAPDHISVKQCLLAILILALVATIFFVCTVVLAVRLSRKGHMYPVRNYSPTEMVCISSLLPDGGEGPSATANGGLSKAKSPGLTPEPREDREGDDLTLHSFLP

B1: h15A7H scFv2-LC-IgG4p (antibody)
light: EVQLVESGGGLVQPGGSLRLSCAASGFTFSSFGMHWVRQAPGKCLEWVAYINGGSSTIFYANAVKGRFTISRDNAKNTLYLQMNSLRAEDTAVYYCARYASYGGGAMDYWGQGTLVTVSSGGGGSGGGGSGGGGSGGGGSGGGGSDIQMTQSPSSLSASVGDRVTITCRSSQSIVHNDGNTYFEWYQQKPGKAPKLLIYKVSNRFSGVPSRFSGSGSGTHFTLTISSLQPEDFATYYCFQGSYVPLTFGCGTKVEIKASTGSGGGGSDIQMTQSPSSLSASVGDRVTITCRSSQSIVHNDGNTYFEWYQQKPGKAPKLLIYKVSNRFSGVPSRFSGSGSGTHFTLTISSLQPEDFATYYCFQGSYVPLTFGQGTKVEIKRTVAAPSVFIFPPSDEQLKSGTASVVCLLNNFYPREAKVQWKVDNALQSGNSQESVTEQDSKDSTYSLSSTLTLSKADYEKHKVYACEVTHQGLSSPVTKSFNRGEC
heavy: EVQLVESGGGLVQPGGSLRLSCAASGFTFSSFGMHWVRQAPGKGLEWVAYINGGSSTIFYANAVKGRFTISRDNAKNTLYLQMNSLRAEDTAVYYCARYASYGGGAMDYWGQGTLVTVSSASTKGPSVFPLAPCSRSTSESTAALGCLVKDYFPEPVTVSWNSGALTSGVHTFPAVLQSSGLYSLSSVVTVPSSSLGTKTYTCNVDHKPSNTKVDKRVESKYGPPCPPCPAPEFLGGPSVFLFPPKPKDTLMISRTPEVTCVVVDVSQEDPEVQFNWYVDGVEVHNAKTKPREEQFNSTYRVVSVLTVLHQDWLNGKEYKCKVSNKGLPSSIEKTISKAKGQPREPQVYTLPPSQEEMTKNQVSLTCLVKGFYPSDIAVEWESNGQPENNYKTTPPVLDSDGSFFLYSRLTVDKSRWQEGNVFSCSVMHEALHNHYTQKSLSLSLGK
notes: Tetravalent: a v2 scFv fused to the N-terminus of each kappa light chain of h15A7H IgG4p
B2: h15A7H scFv4-crIgG4p (antibody)
light: EVQLVESGGGLVQPGGSLRLSCAASGFTFSSFGMHWVRQAPGKCLEWVAYINGGSSTIFYANAVKGRFTISRDNAKNTLYLQMNSLRAEDTAVYYCARYASYGGGAMDYWGQGTLVTVSSGGGGSGGGGSGGGGSGGGGSGGGGSDIQMTQSPSSLSASVGDRVTITCRSSQSIVHNDGNTYFEWYQQKPGKAPKLLIYKVSNRFSGVPSRFSGSGSGTHFTLTISSLQPEDFATYYCFQGSYVPLTFGCGTKVEIKRTVAAPSVFIFPPSDEQLKSGTASVVCLLNNFYPREAKVQWKVDNALQSGNSQESVTEQDSKDSTYSLSSTLTLSKADYEKHKVYACEVTHQGLSSPVTKSFNRGEC
heavy: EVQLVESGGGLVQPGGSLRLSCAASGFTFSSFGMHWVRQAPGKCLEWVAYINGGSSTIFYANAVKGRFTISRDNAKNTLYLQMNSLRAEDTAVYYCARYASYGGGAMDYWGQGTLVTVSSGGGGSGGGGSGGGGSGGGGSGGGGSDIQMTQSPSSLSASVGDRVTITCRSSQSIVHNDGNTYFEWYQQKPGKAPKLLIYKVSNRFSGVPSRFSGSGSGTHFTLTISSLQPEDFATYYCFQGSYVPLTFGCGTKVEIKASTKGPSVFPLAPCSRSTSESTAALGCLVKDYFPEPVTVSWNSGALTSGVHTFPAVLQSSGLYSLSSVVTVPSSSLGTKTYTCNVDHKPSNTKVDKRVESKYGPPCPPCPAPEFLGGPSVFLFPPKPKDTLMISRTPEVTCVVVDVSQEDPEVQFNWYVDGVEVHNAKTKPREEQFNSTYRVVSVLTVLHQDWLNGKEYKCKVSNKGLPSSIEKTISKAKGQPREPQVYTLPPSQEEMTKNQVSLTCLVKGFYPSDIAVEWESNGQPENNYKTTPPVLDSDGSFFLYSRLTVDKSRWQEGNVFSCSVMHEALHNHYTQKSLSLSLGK
notes: Tetravalent: four v2 scFv units fused without a linker to the N-termini of the kappa and IgG4p constant regions
B3: h15A7H LC-scFv2-IgG4p (antibody)
light: DIQMTQSPSSLSASVGDRVTITCRSSQSIVHNDGNTYFEWYQQKPGKAPKLLIYKVSNRFSGVPSRFSGSGSGTHFTLTISSLQPEDFATYYCFQGSYVPLTFGQGTKVEIKRTVAAPSVFIFPPSDEQLKSGTASVVCLLNNFYPREAKVQWKVDNALQSGNSQESVTEQDSKDSTYSLSSTLTLSKADYEKHKVYACEVTHQGLSSPVTKSFNRGECGGGGSGGGGSEVQLVESGGGLVQPGGSLRLSCAASGFTFSSFGMHWVRQAPGKCLEWVAYINGGSSTIFYANAVKGRFTISRDNAKNTLYLQMNSLRAEDTAVYYCARYASYGGGAMDYWGQGTLVTVSSGGGGSGGGGSGGGGSGGGGSGGGGSDIQMTQSPSSLSASVGDRVTITCRSSQSIVHNDGNTYFEWYQQKPGKAPKLLIYKVSNRFSGVPSRFSGSGSGTHFTLTISSLQPEDFATYYCFQGSYVPLTFGCGTKVEIKAAAHHHHHHHHHH
heavy: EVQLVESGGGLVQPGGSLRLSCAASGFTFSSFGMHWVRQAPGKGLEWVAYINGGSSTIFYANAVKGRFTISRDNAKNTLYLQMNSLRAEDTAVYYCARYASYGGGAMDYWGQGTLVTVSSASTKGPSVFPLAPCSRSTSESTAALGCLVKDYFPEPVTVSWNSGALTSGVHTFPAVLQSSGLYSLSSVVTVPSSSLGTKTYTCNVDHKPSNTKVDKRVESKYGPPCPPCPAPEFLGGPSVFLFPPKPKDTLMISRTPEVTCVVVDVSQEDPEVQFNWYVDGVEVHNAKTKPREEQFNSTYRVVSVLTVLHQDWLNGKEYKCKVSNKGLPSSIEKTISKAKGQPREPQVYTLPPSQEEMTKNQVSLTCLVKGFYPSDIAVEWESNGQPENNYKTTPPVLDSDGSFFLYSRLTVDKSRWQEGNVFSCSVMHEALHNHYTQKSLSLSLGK
notes: Tetravalent: a v2 scFv fused to the C-terminus of each kappa light chain of h15A7H IgG4p
B4: h15A7H (antibody, IgG4, V domains shown)
VH: EVQLVESGGGLVQPGGSLRLSCAASGFTFSSFGMHWVRQAPGKGLEWVAYINGGSSTIFYANAVKGRFTISRDNAKNTLYLQMNSLRAEDTAVYYCARYASYGGGAMDYWGQGTLVTVSS
VL: DIQMTQSPSSLSASVGDRVTITCRSSQSIVHNDGNTYFEWYQQKPGKAPKLLIYKVSNRFSGVPSRFSGSGSGTHFTLTISSLQPEDFATYYCFQGSYVPLTFGQGTKVEIK
notes: Bivalent humanized IgG4 kappa antibody with the S228P hinge mutation; also called humanized 15A7H; wild type h15A7H; not shown: human immunoglobulin kappa light chain constant region

For one test, the target named is T1, human P-selectin glycoprotein ligand-1 …. As to the kind of experiment: flow cytometry on Sp2/0-hPSGL-1 cells, antibody at 0.1 µg/mL. As for the experimental part: (§1) Sp2/0 cells transfected with human PSGL-1 (Sp2/0-hPSGL1) were used as the PSGL-1 expressing cell line. Sp2/0-hPSGL1 cells were centrifuged at 1200 rpm for 5 min. The cell pellets were resuspended in FACS buffer (PBS containing 1% FBS) and pipetted into 96 well plate (1×10⁵ cells/well). To each well was added 100 μl of supernatants containing humanized 15A7H (h15A7H)/tetravalent antibodies, and these were incubated for 60 min at 4° C. The cells were washed three times with cold FACS buffer and then incubated with 100 μl of Mouse Anti-Human IgG₄ pFc′-PE (SouthernBiotech Cat. no. 9190-09) at 1 μg/ml concentration for 60 min at 4° C. Subsequently, the cells were washed three times with cold FACS buffer and analyzed by FACS analysis. All flow cytometric analyses were performed on a BD-LSR flow cytometer (Becton Dickinson) using the Cell Quest software.
(§2) The binding ability of h15A7H tetravalent antibodies was evaluated in human PSGL-1 SP2/O cells. The h15A7H tetravalent antibody bound positively to the SP2/O-hPSGL-1, but not to parental SP2/O cell lacking of hPSGL-1 antigen (Table A below). Additionally, wild type h15A7H and all of h15A7H tetravalent antibodies gave similar binding activity on SP2/O-hPSGL-1 (Table A).
A general note: A flow cytometer gives signals particle by particle.
Consider B1, for which the mean fluorescence intensity came to 5540 MFI.
B2 yielded a mean fluorescence intensity of 2640 MFI.
On the same count and under the same terms, to B3 belongs 3040 MFI.
Same read-out and setting: to B4 belongs 3410 MFI.

A further test shares this target. Description: cell-based or functional assay.
For the molecule B1, the “Apoptosis % (background subtracted, n = 4), mean, at 0.0625 µg/mL, SP2/O-hPSGL-1 cells, Annexin V/PI” value was determined as 15.5% and the “Apoptosis % (background subtracted, n = 4), mean, at 0.5 µg/mL, SP2/O-hPSGL-1 cells, Annexin V/PI” value worked out at 23.8%.
B2: the “Apoptosis % (background subtracted, n = 4), mean, at 0.0625 µg/mL, SP2/O-hPSGL-1 cells, Annexin V/PI” value is 1.75% and the “Apoptosis % (background subtracted, n = 4), mean, at 0.5 µg/mL, SP2/O-hPSGL-1 cells, Annexin V/PI” value was 35.8%.
For B3, the “Apoptosis % (background subtracted, n = 4), mean, at 0.0625 µg/mL, SP2/O-hPSGL-1 cells, Annexin V/PI” value was 0.5% and the “Apoptosis % (background subtracted, n = 4), mean, at 0.5 µg/mL, SP2/O-hPSGL-1 cells, Annexin V/PI” value turned out to be 18%.
For B4, in that order: 1.5% and 2.75%.

The target is the same in another test. As to the kind of experiment: flow cytometry on Sp2/0-hPSGL-1 cells, antibody at 1 µg/mL. As for the experimental part: as §1, §2
In turn, B1 yielded a mean fluorescence intensity of 5740 MFI.
The molecule B2 registered a mean fluorescence intensity of 6010 MFI.
On the same count and under the same terms, the same measure for B3: 5820 MFI; for B4: 6400 MFI.

A further test shares this target. As to the kind of experiment: flow cytometry on Sp2/0-hPSGL-1 cells, antibody at 0.3 µg/mL. How it is done:
as §1, §2
B1 registered a mean fluorescence intensity of 7060 MFI.
The same measure, in the same setting: the same measure for B2: 4640 MFI; for B3: 3480 MFI; for B4: 5940 MFI.

The next test shares this target. Description: flow cytometry on Sp2/0-hPSGL-1 cells, antibody at 3 µg/mL. How it is done:
as §1, §2
As to B1, the mean fluorescence intensity worked out at 4380 MFI.
On the same count and under the same terms, to B2 belongs 5940 MFI.
On the same count and under the same terms, the same measure for B3: 6030 MFI; for B4: 4670 MFI.

The record behind these values is US20250092151A1 (ALTRUBIO, published 2025).
